From US20130209489A1 (Amgen, published 2013) come the findings set out here.

In assay [1] the target is T1, mature human myostatin (human, UniProt O14793 267-375).
T1 construct: they are put on this molecule; also called GDF-8; recombinant mature myostatin
Put plainly: ratio of the affinities for GDF11 and myostatin.

The target of assay [2] is TGF-beta1 (UniProt P01137 279-390). Nature of the assay: Biacore SPR, ligand flowed over immobilized antibody. On the procedure:
(§1) Binding specificity analysis was carried out for 12A5-5 using Biacore™, a label-free surface plasmon resonance (SPR) based technology for studying biomolecular interactions in real time (GE Healthcare, Chalfont St. Giles, UK). 12A5-5, and ActRIIB/Fc were made in house, TGFbetaR11/Fc and BMPR-1A/Fc were from R & D Systems (Minneapolis, Minn.). […] Ten nanomolar of each of the ligands was flowed over immobilized high density antibody and receptor surfaces. Binding of Myostatin, GDF11, GDF3, Activin A, Activin AB, Activin AC, TGF-beta1, BMP4, BMP9, and BMP10 to their corresponding receptors was tested and used as control to normalize the signals of the ligands binding to 12A5-5 and the other receptors.
A general note: Surface plasmon resonance follows binding to a sensor surface in real time, without labels.

For assay [3], the target named is T2, GDF3 (UniProt Q9NR23 251-364).
T2 sequence (looked up): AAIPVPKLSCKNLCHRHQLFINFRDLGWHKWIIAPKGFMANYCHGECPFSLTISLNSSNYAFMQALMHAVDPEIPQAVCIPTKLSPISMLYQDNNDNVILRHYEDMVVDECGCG
The description is as above. The procedure:
as §1

In assay [4] the target is T3, BMP4 (UniProt P12644 293-408).
T3 sequence (looked up): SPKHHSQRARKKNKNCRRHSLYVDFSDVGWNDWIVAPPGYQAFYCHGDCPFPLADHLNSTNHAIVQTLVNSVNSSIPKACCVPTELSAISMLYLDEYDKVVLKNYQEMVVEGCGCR
The description is as above. The procedure:
as §1

Assay [5] addresses T4, BMP9 (UniProt Q9UK05 320-429).
T4 sequence (looked up): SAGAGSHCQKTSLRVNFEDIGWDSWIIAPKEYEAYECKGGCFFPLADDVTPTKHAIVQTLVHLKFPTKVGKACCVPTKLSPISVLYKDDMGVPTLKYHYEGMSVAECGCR
Described as above. On the procedure:
as §1

Assay [6] has as its target T5, Activin A (UniProt P08476 311-426).
T5 sequence (looked up): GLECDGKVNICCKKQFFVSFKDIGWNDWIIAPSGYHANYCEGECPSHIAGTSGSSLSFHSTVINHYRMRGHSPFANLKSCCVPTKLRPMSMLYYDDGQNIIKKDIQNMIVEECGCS
The description is as above. The procedure: as §1

Assay [7] deals with T6, Activin AB (UniProt P08476 311-426; P09529 293-407).
T6 construct: the two chains follow from the usual meaning of Activin AB
T6 sequence (looked up) 1: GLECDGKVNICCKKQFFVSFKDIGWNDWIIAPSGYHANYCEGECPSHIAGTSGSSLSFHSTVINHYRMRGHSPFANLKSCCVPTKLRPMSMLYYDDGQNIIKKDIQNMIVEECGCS
T6 sequence (looked up) 2: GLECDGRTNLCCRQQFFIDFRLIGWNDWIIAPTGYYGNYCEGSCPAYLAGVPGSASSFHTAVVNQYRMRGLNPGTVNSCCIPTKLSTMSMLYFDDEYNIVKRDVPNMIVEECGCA
Described as above. On the procedure: as §1

Assay [8] addresses T7, Activin AC (UniProt P08476 311-426; P55103 237-352).
T7 construct: the two chains follow from the usual meaning of Activin AC
T7 sequence (looked up) 1: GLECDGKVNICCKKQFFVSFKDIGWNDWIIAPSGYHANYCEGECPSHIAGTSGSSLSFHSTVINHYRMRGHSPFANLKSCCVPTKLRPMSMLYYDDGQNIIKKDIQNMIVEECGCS
T7 sequence (looked up) 2: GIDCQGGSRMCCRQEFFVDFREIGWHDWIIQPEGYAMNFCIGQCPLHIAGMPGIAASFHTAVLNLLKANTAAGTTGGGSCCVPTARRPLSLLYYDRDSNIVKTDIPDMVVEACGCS
The assay is described as above. On the procedure: as §1

The target in assay [9] is T8, BMP10 (UniProt O95393 317-424).
T8 sequence (looked up): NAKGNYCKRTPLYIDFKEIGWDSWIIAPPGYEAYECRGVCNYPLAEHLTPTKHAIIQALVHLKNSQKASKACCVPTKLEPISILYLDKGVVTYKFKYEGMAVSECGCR
The assay is described as above. On the procedure:
as §1

Assay [10] addresses T9, Peptide J (reduced LysC peptide, 98-109) (human).
T9 construct: From TCEP reduction of peptide G
T9 peptide: IPAMVVDRCGCS
Put plainly: BIAcore competition: 12A5-5 pre-incubated with the HPLC peptide fraction in solution, then passed over immobilized human myostatin. The procedure:
(§2) The strategy for characterizing the epitopes bound by anti-myostatin neutralizing monoclonal antibodies was to use various CNBr—, LysC— and chymotrypsin-generated human myostatin peptides and determine which peptides could be bound by the antibody. In one aspect, this was tested in a BIAcore® competition binding assay where the binding of 12A5-5 to human myostatin immobilized on a BIAcore® chip was determined in the presence or absence of each of the various isolated HPLC peptide fractions. In the absence of any competing peptides, 12A5-5 was able to bind the human myostatin on the chip and produce an RU (resonance unit) response. […] This general procedure was repeated individually for each peptide. […] These binding patterns, coupled with the known identity of the various myostatin peptides were used to determine which regions of myostatin were important (or necessary) for the binding of antibody 12A5-5.

Assay [11] deals with T10, Peptide H (reduced LysC peptide, 91-97) (human).
T10 peptide: EQIIYGK
The assay is described as above. The procedure:
as §2

The target in assay [12] is T11, Peptide F (LysC peptide, 79-90) (human).
T11 peptide: MSPINMLYFNGK
The description is as above. The procedure: as §2

Assay [13] has as its target T12, Peptide K (reduced LysC peptide, 40-54) (human).
T12 construct: From TCEP reduction of peptide G
T12 peptide: ANYCSGECEFVFLQK
The description is as above. The procedure:
as §2

The target of assay [14] is T13, Peptide P (chymotryptic peptide, antibody-protected Cys knot, dimer) (human).
T13 construct: Formed when myostatin pre-incubated with 12A5-5 was digested with chymotrypsin
T13 chain 1: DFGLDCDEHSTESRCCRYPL
T13 chain 2: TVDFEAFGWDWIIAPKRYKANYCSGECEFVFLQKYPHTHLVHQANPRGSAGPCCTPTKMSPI
T13 chain 3: GKIPAMVVDRCGCS
Put plainly: BIAcore competition: 12A5-5 pre-incubated with the HPLC peptide fraction in solution, then passed over immobilized human myostatin; low response means the peptide binds the antibody. The procedure: as §2

Assay [15] has as its target T14, Peptide G (LysC peptide, Cys knot, dimer) (human).
T14 construct: Four LysC peptides held together by disulfide bonds (cystine knot), dimeric through Cys73 (19.5 kD)
T14 chain 1: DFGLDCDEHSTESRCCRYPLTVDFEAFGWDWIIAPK
T14 chain 2: ANYCSGECEFVFLQK
T14 chain 3: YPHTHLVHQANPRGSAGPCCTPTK
T14 chain 4: IPAMVVDRCGCS
The description is as above. On the procedure:
as §2

TGF-beta1, sequence (P01137 279-390 limits assumed): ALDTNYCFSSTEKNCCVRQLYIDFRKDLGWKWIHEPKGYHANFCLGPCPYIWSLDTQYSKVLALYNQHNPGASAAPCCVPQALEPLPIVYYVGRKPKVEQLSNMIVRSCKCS

B1: anti-myostatin neutralizing monoclonal antibody 12A5-5 (antibody, V domains shown)
VH: EVQLVESGGGLVQPGGSLRLSCAASGFTFSRYWMNWVRQAPGKGLEWVAQIRLKSDNYATHYAESVKGRFTISRDNAKNSLYLQMNSLRAEDTAVYYCTEGLDYWGQGTTVTVSS
VL: DIQMTQSPSSLSASVGDRVTITCKASQDINKYVAWYQQKPGKAPKLLIYYTSWLQPGVPSRFSGSGSGTDFTFTISSLQPEDIATYYCLQYDNLLYTFGQGTKLEIK
notes: in the KinExA assay it was detected with a goat anti-human-Fc antibody, so it carries a human Fc; also called Mab 12A5-5; MAb 12A5-5
Turning to B1, the “fold selectivity for myostatin over GDF11” value in [1] was about 10000 fold. In addition, the binding result in [2], in [3], in [4], in assay [5], in [6] and in assay [7] was “no binding (tested: Ten nanomolar of each of the ligands)” in each case. Also, the binding result was “no binding (tested: Ten nanomolar of each of the ligands)” in assay [8]; “no binding (tested: Ten nanomolar of each of the ligands)” in [9]; “no binding (tested: peptide concentration not printed)” in assay [10]; “no binding (tested: peptide concentration not printed)” in assay [11]; “no binding (tested: peptide concentration not printed)” in assay [12]; “no binding (tested: peptide concentration not printed)” in assay [13]. For the same molecule, the binding result in assay [14] and in assay [15] was “binds” each time.
